The labels stand for the following.
B1: Haemophilus influenzae LuxS (enzyme)
chain: MPLLDSFKVDHTKMNAPAVRIAKTMLTPKGDNITVFDLRFCIPNKEILSPKGIHTLEHLFAGFMRDHLNGDSIEIIDISPMGCRTGFYMSLIGTPNEQKVSEAWLASMQDVLGVQDQASIPELNIYQCGSYTEHSLEDAHEIAKNVIARGIGVNKNEDLSLDNSLLKGSHHHHHH
modifications: selenomethionine in place of methionine (SeMet protein used for the crystals)
notes: Open reading frame amplified from H. influenzae ATCC 51907D genomic DNA and expressed in E. coli with 8 added C-terminal residues; Homodimer in the crystal (two molecules in the asymmetric unit); also called H. influenzae LuxS; Haemophilus influenzae wtLuxS
B2: Helicobacter pylori LuxS (enzyme)
chain: MKMNVESFNLDHTKVKAPYVRIADRKKGVNGDLIVKYDVRFKQPNRDHMDMPSLHSLEHLVAEIIRNHANYVVDWSPMGCQTGFYLTVLNHDNYTEILEVLEKTMQDVLKAKEVPASNEKQCGWAANHTLEGAQNLARAFLDKRAEWSEVGVGSHHHHHH
modifications: selenomethionine in place of methionine (SeMet protein used for the crystals)
notes: Open reading frame amplified from H. pylori ATCC 43504D genomic DNA and expressed in E. coli with 8 added C-terminal residues; Homodimer in the crystal (two molecules, A and B, in the asymmetric unit); also called H. pylori LuxS; Helicobacter pylori wtLuxS
B3: Deinococcus radiodurans LuxS (enzyme)
chain: MPDMANVESFDLDHTKVKAPYVRLAGVKTTPKGDQISKYDLRFLQPNQGAIDPAAIHTLEHLLAGYMRDHLEGVVDVSPMGCRTGMYMAVIGEPDEQGVMKAFEAALKDTAGHDQPIPGVSELECGNYRDHDLAAARQHARDVLDQGLKVQETILLERGSHHHHHH
modifications: selenomethionine in place of methionine (SeMet protein used for the crystals)
notes: Open reading frame amplified from D. radiodurans ATCC 13939D genomic DNA and expressed in E. coli with 8 added C-terminal residues; The same protein gave several crystal forms: P21 has a non-crystallographic dimer in the asymmetric unit, and C2 has a crystallographic dimer; also called D. radiodurans LuxS; Deinococcus radiodurans wtLuxS

This series deals with the molecule itself. Kind of series: X-ray crystal structure, homodimer interface.
Take B1: the “surface area buried through the dimer interaction” value was determined as 4160 Å^2.

With B2, the “surface area buried through the dimer interaction” value stood at 4180 Å^2. For B3, the “surface area buried through the dimer interaction” value was found to be 3930 Å^2.

For the origin of these results see patent US20040077522A1 (published 2004).
